# Changes are numbered by the printed parent chain.
# T1: intact high molecular weight kininogen (HMWK) (Homo sapiens, UniProt P01042 19-644)
# T1 construct: also called intact HMWK; 1-chain HMWK
# T1 sequence: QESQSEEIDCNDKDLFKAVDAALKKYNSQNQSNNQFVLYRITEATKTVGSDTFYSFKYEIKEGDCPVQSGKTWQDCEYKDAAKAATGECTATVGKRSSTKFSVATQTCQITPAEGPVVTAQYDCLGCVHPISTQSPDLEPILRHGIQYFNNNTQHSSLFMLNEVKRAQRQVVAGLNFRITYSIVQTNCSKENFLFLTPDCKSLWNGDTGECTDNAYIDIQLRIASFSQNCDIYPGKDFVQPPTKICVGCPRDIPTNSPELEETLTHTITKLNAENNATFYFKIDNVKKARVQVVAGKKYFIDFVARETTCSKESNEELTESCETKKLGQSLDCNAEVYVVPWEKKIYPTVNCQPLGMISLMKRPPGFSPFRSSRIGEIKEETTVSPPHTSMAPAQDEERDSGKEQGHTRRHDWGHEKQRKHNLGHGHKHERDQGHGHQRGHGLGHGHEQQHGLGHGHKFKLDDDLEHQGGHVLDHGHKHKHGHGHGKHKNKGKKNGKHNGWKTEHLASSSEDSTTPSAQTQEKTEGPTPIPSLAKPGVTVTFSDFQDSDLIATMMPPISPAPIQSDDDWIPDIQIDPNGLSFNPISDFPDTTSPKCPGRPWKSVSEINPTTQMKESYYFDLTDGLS
# B1: 559B-M0068-C07 (Fab, V domains shown)
# VH: EVQLLESGGGLVQPGGSLRLSCAASGFTFSSYQMHWVRQAPGKGLEWVSGIYSSGGSTPYADSVKGRFTISRDNSKNTLYLQMNSLRAEDTAVYYCARGHHGMDVWGQGTTVTVSS
# VL: DIQMTQSPSSVSASVGDRVTITCRASQGISSWLAWYQQKPGKAPKLLIYAASNLQSGVPSRFSGSGSGTDFTLTISSLQPEDFATYYCQKYNIAPYTFGQGTKLEIK
# B2: 559B-M0067-E02 (Fab, V domains shown)
# VH: EVQLLESGGGLVQPGGSLRLSCAASGFTFSLYPMVWVRQAPGKGLEWVSSIYPSGGFTTYADSVKGRFTISRDNSKNTLYLQMNSLRAEDTAVYYCARSSRYYYYGMDVWGQGTTVTVSS
# VL: QYELTQPPSMSGTPGQRVTISCSGSSSNIGSEYVYWFQQLPGTAPKLLIYRNDQRPSGVPDRFSGSKSGTSASLAISGLRSEDETDYYCSTWDDTLRTGVFGGGTKVTVL
# B3: 559B-M0061-G06 (Fab, V domains shown)
# VH: EVQLLESGGGLVQPGGSLRLSCAASGFTFSKYTMWWVRQAPGKGLEWVSVISSSGGKTYYADSVKGRFTISRDNSKNTLYLQMNSLRAEDTAVYYCARTANRAFDIWGQGTMVTVSS
# VL: DIQMTQSPAALSVSPGERATLSCRASQSVSSDLAWYQQKPGQAPRLLIHGASTRATGIPARFSGSGSGREFTLTISSLQSEDFAVYYCQQYNDWPPLFGPGTKVNIK
# B4: 559B-M0019-E12 (Fab, V domains shown)
# VH: EVQLLESGGGLVQPGGSLRLSCAASGFTFSGYNMYWVRQAPGKGLEWVSRISPSGGWTSYADSVKGRFTISRDNSKNTLYLQMNSLRAEDTAVYYCTRGQWMDWWGQGTMVTVSS
# VL: DIQMTQSPSSLSASVGDRVIITCRASQNITGYLNWYQQKPGKAPNLLIYDASRMNTGVPSRFRGSGSGTDYILTIYKLEPEDIGTYFCQHTDDFSVTFGGGTKVDLK
# B5: 559B-X0004-B05 (Fab, V domains shown)
# VH: EVQLLESGGGLVQPGGSLRLSCAASGFTFHYRMMWVRQAPGKGLEWVSYISSSGGYTAYADSVKGRFTISRDNSKNTLYLQMNSLRAEDTAVYYCAAKRNRAFDIWGQGTMVTVSS
# VL: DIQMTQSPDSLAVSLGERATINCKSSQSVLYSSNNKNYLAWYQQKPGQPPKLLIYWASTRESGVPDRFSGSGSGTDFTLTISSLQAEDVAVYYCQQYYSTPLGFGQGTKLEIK
# B6: 559B-M0044-E09 (Fab, V domains shown)
# VH: EVQLLESGGGLVQPGGSLRLSCAASGFTFSQYSMGWVRQAPGKGLEWVSSIYSSGGSTQYADSVKGRFTISRDNSKNTLYLQMNSLRAEDTATYYCARTRRGWFGEDYYYYMDVWGKGTTVTVSS
# VL: DIQMTQSPSSLSASVGDRITITCRASQGIRNDVGWYQQKPGKAPQRLIYAASSLQSGVPSRFSGSGSGTEFTLTISSLQPEDFATYYCLQHNSYPLTFGGGTKVEIK
# B7: 559B-M0036-G12 (Fab, V domains shown)
# VH: B6 VH with Q31R, S33Y, G35A, S50G, Y52V, S53P, S57Q, Q59G, T93V, T120L
# VL: DIQMTQSPGTLSLSPGERATVSCRASQSVGSTYLAWYQHKPGQAPRLLIYGASSRATGIPDRFSGSGSGTDFTLTISSLEPEDFAIYYCQHFHTSPPGITFGQGTRLEIK
# B8: 559B-M0003-C08 (Fab, V domains shown)
# VH: EVQLLESGGGLVQPGGSLRLSCAASGFTFSPYMMYWVRQAPGKGLEWVSSISPSGGKTWYADSVKGRFTISRDNSKNTLYLQMNSLRAEDTAVYYCARLGGSSSYYYYYYYGMDVWGQGTTVTVSS
# VL: QSALTQSPSASGTPGQRVTISCSGSSSNIGGNTVNWYQQFPGTAPKLLIYSNNQRPSGVPDRFSGSKSGTSASLAISGLQSEDEAIYYCASWDDRLNGHWVFGGGTRLTVL
# B9: 559B-M0039-D08 (Fab, V domains shown)
# VH: EVQLLESGGGLVQPGGSLRLSCAASGFTFSNYAMQWVRQAPGKGLEWVSWIYSSGGPTYYADSVKGRFTISRDNSKNTLYLQMNSLRAEDTAVYYCARGLPGQPFDYWGQGTLVTVSS
# VL: QSELTQPPSASGTPGQRVTISCSGSSSNIGNNYVYWYQQFPGTAPKLLIYRNNQRPSGVPDRFSGSKSGTSASLAISGLRSEDEADYYCATWDDRLSGWVFGGGTKLTVL
# B10: 559B-M0021-G11 (Fab, V domains shown)
# VH: EVQLLESGGGLVQPGGSLRLSCAASGFTFSPYPMTWVRQAPGKGLEWVSGISSSGGFTPYADSVKGRFTISRDNSKNTLYLQMNSLRAEDTAVYYCARMVRGVIKAFDIWGQGTMVTVSS
# VL: B9 VL with S2Y, N31S, N32H, Y35F, F40L, T43A, D94N, R95S, G98A
# B11: 559B-M0038-F04 (Fab, V domains shown)
# VH: EVQLLESGGGLVQPGGSLRLSCAASGFTFSKYEMMWVRQAPGKGLEWVSSISPSGGYTMYADSVKGRFTISRDNSKNTLYLQMNSLRAEDTAVYYCARHRSKWNDAPFDSWGQGTLVTVSS
# VL: DIQMTQSPSSLSASVGDRVAITCRASQSIDTYLNWYQQKPGKAPKLLIYAASKLEDGVPSRFSGSGTGTDFTLTIRSLQPEDFASYFCQQSYSSPGITFGPGTKVEIK
# B12: 559B-M0047-H01 (Fab, V domains shown)
# VH: EVQLLESGGGLVQPGGSLRLSCAASGFTFSFYMMYWVRQAPGKGLEWVSSISSSGGFTRYADSVKGRFTISRDNSKNTLYLQMNSLRAEDTAVYYCARVRGLAVAAPDYWGQGTLVTVSS
# VL: QSELTQPASVSGSPGQSITISCIGTSSDIGTYNYVSWYQQHPGKAPKLMIYDVNTRPSGVSDRFSGSKSGNTASLTISGLQAEDEADYYCSSYTTSVTWVFGGGTTLTVL
# B13: 559B-M0044-C05 (Fab, V domains shown)
# VH: EVQLLESGGGLVQPGGSLRLSCAASGFTFSIYQMYWVRQAPGKGLEWVSSIYSSGGRTFYADSVKGRFTISRDNSKNTLYLQMNSLRAEDTAVYYCATRGSWYVGGNEYFQHWGQGTLVTVSS
# VL: QSVLTQSPSLSLSPGQTASIPCSGDTLGNKFVSWYQQKPGQSPVLVIYQDTKRPSGIPERFSGSNSGNTATLTITGTQAMDEADYYCQVWDSNSYAFGPGTKVTVL
# B14: 559B-M0038-H03 (Fab, V domains shown)
# VH: EVQLLESGGGLVQPGGSLRLSCAASGFTFSKYDMHWVRQAPGKGLEWVSRISSSGGKTEYADSVKGRFTISRDNSKNTLYLQMNSLRAEDTAVYYCAREYRYCTANTCSLYGMDVWGRGTTVTVSS
# VL: DIQMTQSPSSLSASVGDRVAITCRTSQGVRSDFAWYQQTPGKAPRRLIYAAFILDNGVPSRFSGSGSGTEFTLTISSLQPEDFATYYCQQSYSTPLTFGGGTKVEMK
# B15: 559B-M0039-H06 (Fab, V domains shown)
# VH: EVQLLESGGGLVQPGGSLRLSCAASGFTFSAYDMHWVRQAPGKGLEWVSSIWPSGGGTYYADSVKGRFTISRDNSKNTLYLQMNSLRAEDTAVYYCARGDYDYGDFTDAFDIWGQGTMVTVSS
# VL: QSALTQPASVSGSPGQSITISCTGTSSDVGSYNLVSWYQQHPGKAPKLMIYEGSKRPSGVPDRFSGSKSGNTASLIISGLQAEDEADYYCCSYAGSYSYVFGTGTRVTVL
# B16: 559B-M0048-D12 (Fab, V domains shown)
# VH: EVQLLESGGGLVQPGGSLRLSCAASGFTFSRYQMTWVRQAPGKGLEWVSSIGSSGGFTNYADSVKGRFTISRDNSKNTLYLQMNSLRAEDTAVYYCARLPANFYYYMDVWGKGTTVTVSS
# VL: DIQMTQSPSSLSASVGDRVTITCRASQNIYSFLNWYQQKPGKAPKLLIYATSSLQSGVPSRFSGSGSGTDFTLTISSLQPEDFASYYCQQNYNIPWTFGQGTKVEIK
# Biological target: T1, intact high molecular weight kininogen …
# Assay: ELISA: Fab coated on 96-well plate, LowCross block, biotinylated antigen, streptavidin-HRP; signal over uncoated well
# Experimental: Thirty-six purified Fab clones (see Table 2 below) were assessed for binding to cleaved HWMK, intact HMWK, and LWMK using the immunoassay described in Example 1. Specifically, each of the purified Fab clones was immobilized on 96-well assay plates at a concentration of […]) in a total volume of 100 μL in PBS and incubated overnight at 2-8° C. The assay plates were blocked using LowCross blocking buffer. Biotinylated intact HMWK, biotinylated cleaved HMWK or biotinylated LMWK ([…]) was added to each well in a total volume of 100 μL and incubated for 2 hours prior to washing with a wash buffer. HRP-labeled streptavidin was added to each well at a concentration of 100 ng/mL, and the signal was developed using Ultra TMB Substrate. The signal to noise ratio was calculated using the signal observed upon the addition of the biotinylated protein to an uncoated well. (FIG. 2, panels A and B). Based on the ELISA results, the antibodies can be divided among 5 categories (Table 2).
row,binding result,Binder
1,binds,B1
2,binds,B2
3,binds,B3
4,binds,B4
5,binds,B5
6,binds,B6
7,binds,B7
8,binds,B8
9,binds,B9
10,binds,B10
11,binds,B11
12,binds,B12
13,binds,B13
14,binds,B14
15,binds,B15
16,binds,B16

# Source: patent publication US20210270842A1 (DYAX, published 2021)
